For assay [1], the target named is T1, FcγRIIb extracellular domain with C-terminal His tag (human, UniProt P31994 43-217).
T1 construct: extracellular domain; also called FcgRIIb; 2b; not shown: His tag attached to the C terminus
T1 sequence (looked up): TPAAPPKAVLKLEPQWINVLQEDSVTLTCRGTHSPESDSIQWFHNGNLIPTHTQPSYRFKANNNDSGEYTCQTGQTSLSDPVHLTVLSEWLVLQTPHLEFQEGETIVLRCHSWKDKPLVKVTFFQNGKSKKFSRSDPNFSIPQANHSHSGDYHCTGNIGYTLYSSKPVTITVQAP
The experiment in a line: SPR (Biacore), relative binding. As to the method: (§1) Analysis of interaction between objective antibody and the FcγR was carried out using Biacore T100 (GE Healthcare). HBS-EP+ (GE Healthcare) was used as the running buffer, and the measurement temperature was set to 25° C. Chips produced by immobilizing the antigen peptide by the amine coupling method to a Series S Sencor Chip CM5 (GE Healthcare), or alternatively, chips produced by allowing preliminarily biotinylated antigen peptides to interact with and immobilize onto a Series S Sensor Chip SA (certified) (GE Healthcare) were used. Antibodies of interest were captured onto an antigen peptide-immobilized chip, and allowed to interact to each FcγR diluted with running buffer. To regenerate and repeatedly use the chip, the antibodies captured on the chip were washed off by reacting 10 mM glycine-HCl, pH 1.5.
(§2) The FcγR-binding activity of each antibody was assessed primarily using as an indicator the FcγR-binding activity and dissociation constant for FcγR.
For orientation: In SPR one partner is held on a chip, and binding of the other changes the refractive index at the surface.

The target in assay [2] is T2, FcγRIIIa extracellular domain with C-terminal His tag (human, UniProt P08637 17-208).
T2 construct: extracellular domain; also called FcgRIIIa; 3a; not shown: His tag attached to the C terminus
T2 sequence (P08637 17-208): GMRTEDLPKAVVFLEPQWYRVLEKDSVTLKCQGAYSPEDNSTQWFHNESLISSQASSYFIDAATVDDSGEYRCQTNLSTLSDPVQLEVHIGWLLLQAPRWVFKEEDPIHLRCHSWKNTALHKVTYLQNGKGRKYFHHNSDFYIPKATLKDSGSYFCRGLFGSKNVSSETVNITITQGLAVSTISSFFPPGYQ
The assay can be described thus: SPR (Biacore), relative binding. On the procedure:
as §1, §2

The target of assay [3] is T2, FcγRIIIa extracellular domain with …. The experiment in a line: SPR (Biacore); He/Con_3a divided by He/Con_2b (reference: binding to FcγRIIb). On the procedure:
as §1, §2

Assay [4] has as its target T3, FcγRIIb, extracellular domain with C-terminal His tag (human, UniProt P31994 43-217).
T3 construct: extracellular domain; soluble receptor used as Biacore analyte; also called 2b; FcgRIIb
T3 sequence (looked up): T1 sequence (looked up)
The assay can be described thus: Biacore SPR; binding relative to GpH7-A5/GpH7-B3/GpL16-k0 (=100). On the procedure: (§3) The heterodimerized antibodies He Abs in which one of the H chains was introduced with an alteration were assayed for their binding activities to each activating FcγR and inhibitory FcγR according to the method described in Example 4. […] The activating FcγRs in FIGS. 26, 27, 28, and 29 are FcγRIa, FcγRIIa (R), FcγRIIa (H), and FcγRIIIa, respectively.
as §1

The target in assay [5] is T4, FcγRIIa R (FcγRIIa, allotype R, Arg at position 131), extracellular domain with C-terminal His tag (human, UniProt P12318 34-217).
T4 construct: extracellular domain; soluble receptor used as Biacore analyte; also called 2aR; FcgRIIa R
T4 sequence (looked up): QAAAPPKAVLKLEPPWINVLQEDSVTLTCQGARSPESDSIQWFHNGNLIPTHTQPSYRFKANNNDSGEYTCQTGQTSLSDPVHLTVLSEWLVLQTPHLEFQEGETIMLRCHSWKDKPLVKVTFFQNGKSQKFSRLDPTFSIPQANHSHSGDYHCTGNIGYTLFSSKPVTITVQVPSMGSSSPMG
The assay is described as above. On the procedure:
as §3, §1

B1: GpH7-A5/GpH7-B3 variant A327_07I/GpL16-k0 (antibody, human IgG1, kappa)
heavy 1: not shown
heavy 2: not shown
light: DIVMTQSPLSLPVTPGEPASISCQASESLVHSNRNTYLHWYLQKPGQSPQLLIYKVSNRFSGVPDRFSGSGSGTDFTLKISRVEAEDVGVYYCSQNTHVPPTFGQGTKVEIERTVAAPSVFIFPPSDEQLKSGTASVVCLLNNFYPREAKVQWKVDNALQSGNSQESVTEQDSKDSTYSLSSTLTLSKADYEKHKVYACEVTHQGLSSPVTKSFNRGEC
notes: Heterodimerized IgG1; alteration in one H chain only; also called He Ab
B1: the “He/Con_2b (IIb binding)” value in assay [1] was 127 % of GpH7-A5/GpH7-B3/GpL16-k0 (=100). For the same molecule, in assay [2], the “He/Con_3a (IIIa binding)” value is 42.4 % of GpH7-A5/GpH7-B3/GpL16-k0 (=100). Moreover, the “He_3a/2b (IIIa/IIb)” value in assay [3] was 0.33 ratio.

B2: GpH7-A5/GpH7-B3 variant A327_10E/GpL16-k0 (antibody, human IgG1, kappa)
heavy 1: not shown
heavy 2: not shown
light: B1 light
notes: as for B1
Regarding B2, the “He/Con_2b (IIb binding)” value in assay [1] was 140 % of GpH7-A5/GpH7-B3/GpL16-k0 (=100). The “He/Con_3a (IIIa binding)” value in assay [2] was 68.6 % of GpH7-A5/GpH7-B3/GpL16-k0 (=100). Moreover, the “He_3a/2b (IIIa/IIb)” value in assay [3] stood at 0.49 ratio.

B3: GpH7-A5/GpH7-B3 variant A327_03V/GpL16-k0 (antibody, human IgG1, kappa)
heavy 1: not shown
heavy 2: not shown
light: B1 light
notes: as for B1
Regarding B3, in assay [1], the “He/Con_2b (IIb binding)” value was 94.7 % of GpH7-A5/GpH7-B3/GpL16-k0 (=100). Besides, the “He/Con_3a (IIIa binding)” value in assay [2] was 45.8 % of GpH7-A5/GpH7-B3/GpL16-k0 (=100). Moreover, the “He_3a/2b (IIIa/IIb)” value in assay [3] was found to be 0.48 ratio.

B4: GpH7-A5/GpH7-B3 variant K326_09D/GpL16-k0 (antibody, human IgG1, kappa)
heavy 1: not shown
heavy 2: not shown
light: B1 light
notes: as for B1
For B4, the “He/Con_2b (IIb binding)” value in assay [1] was 193 % of GpH7-A5/GpH7-B3/GpL16-k0 (=100). Besides, the “He/Con_3a (IIIa binding)” value in assay [2] is 134 % of GpH7-A5/GpH7-B3/GpL16-k0 (=100). In addition, the “He_3a/2b (IIIa/IIb)” value in assay [3] worked out at 0.69 ratio.

B5: GpH7-A5/GpH7-B3 variant A327_15Y/GpL16-k0 (antibody, human IgG1, kappa)
heavy 1: not shown
heavy 2: not shown
light: B1 light
notes: as for B1
With B5, the “He/Con_2b (IIb binding)” value in assay [1] is 60.8 % of GpH7-A5/GpH7-B3/GpL16-k0 (=100). Moreover, the “He/Con_3a (IIIa binding)” value in assay [2] is 46.8 % of GpH7-A5/GpH7-B3/GpL16-k0 (=100). Besides, the “He_3a/2b (IIIa/IIb)” value in assay [3] is 0.77 ratio.

B6: GpH7-A5/GpH7-B3 variant A327_04F/GpL16-k0 (antibody, human IgG1, kappa)
heavy 1: not shown
heavy 2: not shown
light: B1 light
notes: as for B1
Consider B6, for which the “He/Con_2b (IIb binding)” value in assay [1] was 63.7 % of GpH7-A5/GpH7-B3/GpL16-k0 (=100). In addition, the “He/Con_3a (IIIa binding)” value in assay [2] is 46.2 % of GpH7-A5/GpH7-B3/GpL16-k0 (=100). Moreover, in assay [3], the “He_3a/2b (IIIa/IIb)” value came out at 0.72 ratio.

B7: GpH7-A5/GpH7-B3 variant K326_06M/GpL16-k0 (antibody, human IgG1, kappa)
heavy 1: not shown
heavy 2: not shown
light: B1 light
notes: as for B1
Take B7: the “He/Con_2b (IIb binding)” value in assay [1] is 165 % of GpH7-A5/GpH7-B3/GpL16-k0 (=100). The “He/Con_3a (IIIa binding)” value in assay [2] is 115 % of GpH7-A5/GpH7-B3/GpL16-k0 (=100). Also, the “He_3a/2b (IIIa/IIb)” value in assay [3] stood at 0.7 ratio.

B8: heterodimerized antibody GpH7-A5/GpH7-B3 variant I332_02A/GpL16-k0 (antibody, human IgG1, kappa)
heavy 1: not shown
heavy 2: not shown
light: B1 light
notes: He Ab: anti-glypican-3 IgG1, alteration in one H chain only; also called He Ab
As for B8, the “He/Con_2b (IIb binding)” value in assay [4] is 103 % of control. The “He/Con_2aR (IIaR binding)” value in assay [5] was 97.6 % of control.

B9: GpH7-A5/GpH7-B3 variant A327_08L/GpL16-k0 (antibody, human IgG1, kappa)
heavy 1: not shown
heavy 2: not shown
light: B1 light
notes: as for B1
For the molecule B9, the “He/Con_2b (IIb binding)” value in assay [1] was 63.1 % of GpH7-A5/GpH7-B3/GpL16-k0 (=100). Further, the “He/Con_3a (IIIa binding)” value in assay [2] was 42 % of GpH7-A5/GpH7-B3/GpL16-k0 (=100). Further, the “He_3a/2b (IIIa/IIb)” value in assay [3] was determined as 0.67 ratio.

B10: GpH7-A5/GpH7-B3 variant K326_04F/GpL16-k0 (antibody, human IgG1, kappa)
heavy 1: not shown
heavy 2: not shown
light: B1 light
notes: as for B1
Turning to B10, the “He/Con_2b (IIb binding)” value in assay [1] was 155 % of GpH7-A5/GpH7-B3/GpL16-k0 (=100). Moreover, the “He/Con_3a (IIIa binding)” value in assay [2] was 103 % of GpH7-A5/GpH7-B3/GpL16-k0 (=100). In addition, the “He_3a/2b (IIIa/IIb)” value in assay [3] came to 0.66 ratio.

B11: heterodimerized antibody GpH7-A5/GpH7-B3 variant L328_19Q/GpL16-k0 (antibody, human IgG1, kappa)
heavy 1: not shown
heavy 2: not shown
light: B1 light
notes: as for B8
For B11, in assay [4], the “He/Con_2b (IIb binding)” value is 105 % of control. Besides, in assay [5], the “He/Con_2aR (IIaR binding)” value was 89.3 % of control.

B12: heterodimerized antibody GpH7-A5/GpH7-B3 variant S239_03V/GpL16-k0 (antibody, human IgG1, kappa)
heavy 1: not shown
heavy 2: not shown
light: B1 light
notes: as for B8
With B12, the “He/Con_2b (IIb binding)” value in assay [4] was 108 % of control. The “He/Con_2aR (IIaR binding)” value in assay [5] was 99.9 % of control.

B13: GpH7-A5/GpH7-B3 variant K326_15Y/GpL16-k0 (antibody, human IgG1, kappa)
heavy 1: not shown
heavy 2: not shown
light: B1 light
notes: as for B1
With B13, the “He/Con_2b (IIb binding)” value in assay [1] is 159 % of GpH7-A5/GpH7-B3/GpL16-k0 (=100). In addition, the “He/Con_3a (IIIa binding)” value in assay [2] was 112 % of GpH7-A5/GpH7-B3/GpL16-k0 (=100). Further, in assay [3], the “He_3a/2b (IIIa/IIb)” value amounted to 0.7 ratio.

B14: GpH7-A5/GpH7-B3 variant Y300_05P/GpL16-k0 (antibody, human IgG1, kappa)
heavy 1: not shown
heavy 2: not shown
light: B1 light
notes: as for B1
Regarding B14, the “He/Con_3a (IIIa binding)” value in assay [2] is 2.8 % of GpH7-A5/GpH7-B3/GpL16-k0 (=100). Besides, the “He_3a/2b (IIIa/IIb)” value in assay [3] worked out at 0.38 ratio.

B15: GpH7-A5/GpH7-B3 variant K326_19Q/GpL16-k0 (antibody, human IgG1, kappa)
heavy 1: not shown
heavy 2: not shown
light: B1 light
notes: as for B1
For the molecule B15, in assay [1], the “He/Con_2b (IIb binding)” value is 139 % of GpH7-A5/GpH7-B3/GpL16-k0 (=100). Moreover, the “He/Con_3a (IIIa binding)” value in assay [2] was 106 % of GpH7-A5/GpH7-B3/GpL16-k0 (=100). The “He_3a/2b (IIIa/IIb)” value in assay [3] worked out at 0.76 ratio.

The values are drawn from patent US20180155451A1 (published 2018).
